Our source for the Kd and IC50 values is US20120149881A1 (Genentech, published 2012).

Residue numbers refer to the chain shown, from its start.

For assay [1], the target named is T1, human IgE CH3-CH4-M1′/Fc fusion protein (human).
T1 construct: also called M1′ (immobilized)
In words: SPR Biacore A100, M1′ immobilized.

Assay [2] deals with T2, human IgE with the M1′ sequence (long form of membrane IgE) expressed on transduced BJAB or Daudi cells (human, UniProt P01854 116-546).
T2 construct: Full-length heavy and light chains of the U266 IgE B cell receptor, retrovirally expressed; also called IgE/M1′; IgE-M1′
In words: Scatchard analysis on cells expressing human IgE/M1′. On the procedure: The BJAB or Daudi cells expressing various forms of IgE with or without M1′ (Human, Rhesus, Cyno) were prepared for binding in cold Binding buffer composed of base media, with 10 mM HEPES pH 7.4, and 2% FBS as well as 40 ug/ml human IgG. Cells are diluted to concentration of 1.7×10⁶ cells/ml, and kept on ice until they are added to the assay. The proteins/antibodies are iodinated with the Iodogen method. Various concentrations of cold protein are prepared in triplicate, using a 1:2 dilution starting with the saturation concentration and ending at a concentration of zero, with a total of 14 concentrations. Hot protein of a single concentration is added to all dilutions compete with the cold protein. Lastly the cells are added to the hot and cold protein mixture, 250,000 cells per sample were used. Assay is kept at 4° C. for 4 hours, shaking. Each sample is then collected and filtered on membrane, washed at least 3 times with binding buffer, allowed to dry and then counted for 1 minute using Perkin Elmer Wizard 1470 Auto Gamma Counter.

The target of assay [3] is T1, human IgE CH3-CH4-M1′/Fc fusion protein. Nature of the assay: SPR Biacore 2000, IgG immobilized, M1′-Fc analyte.
Assay [4] deals with T2, human IgE with the M1′ sequence (long …). In words: competitive ECL binding on BJAB-IgE/M1′ cells vs biotinylated 26A11 or 47H4, 1st IC50 column.
For assay [5] the target is unchanged. In words: competitive ECL binding on BJAB-IgE/M1′ cells vs biotinylated 26A11 or 47H4, 2nd IC50 column.
The target in assay [6] is T1, human IgE CH3-CH4-M1′/Fc fusion protein. In words: SPR Biacore 2000, M1′-Fc immobilized.
Assay [7] deals with T2, human IgE with the M1′ sequence (long …). Nature of the assay: number printed in the titration panel; FIG. 3M calls these numbers 'Scatchard Results' (BJAB-Long cells). The method, then: In addition to relative affinity determinations by antibody titration and FACs detection, we also determined affinities of selected anti-MP antibodies to BJAB cell lines expressing IgE long form using Scatchard analysis. BJAB-Long cells were prepared for binding in cold Binding buffer composed of base media, with 10 mM HEPES pH 7.4, and 2% FBS as well as 40 μg/ml human IgG. Cells were diluted to a concentration of 1.7×10⁶ cells/ml, and kept on ice until added to the assay. The antibodies were iodinated with Iodogen method. Various concentrations of unlabelled antibody were prepared in triplicate, using a 1:2 dilution starting with the saturation concentration and ending at a concentration of zero, with a total of 14 concentrations. Iodinated antibody of a single concentration was added to all dilutions of the competitor unlabelled antibody. Lastly 250,000 BJAB-Long cells were added to each mixture of iodinated and unlabelled antibody. The samples were incubated at 4° C. for 4 hours, shaking. Each sample was then collected and filtered on a membrane, washed at least 3 times with binding buffer, allowed to dry and then measured for 1 minute using a Perkin Elmer Wizard 1470 Auto Gamma Counter.

T1 sequence (chain, as listed by the source limits assumed): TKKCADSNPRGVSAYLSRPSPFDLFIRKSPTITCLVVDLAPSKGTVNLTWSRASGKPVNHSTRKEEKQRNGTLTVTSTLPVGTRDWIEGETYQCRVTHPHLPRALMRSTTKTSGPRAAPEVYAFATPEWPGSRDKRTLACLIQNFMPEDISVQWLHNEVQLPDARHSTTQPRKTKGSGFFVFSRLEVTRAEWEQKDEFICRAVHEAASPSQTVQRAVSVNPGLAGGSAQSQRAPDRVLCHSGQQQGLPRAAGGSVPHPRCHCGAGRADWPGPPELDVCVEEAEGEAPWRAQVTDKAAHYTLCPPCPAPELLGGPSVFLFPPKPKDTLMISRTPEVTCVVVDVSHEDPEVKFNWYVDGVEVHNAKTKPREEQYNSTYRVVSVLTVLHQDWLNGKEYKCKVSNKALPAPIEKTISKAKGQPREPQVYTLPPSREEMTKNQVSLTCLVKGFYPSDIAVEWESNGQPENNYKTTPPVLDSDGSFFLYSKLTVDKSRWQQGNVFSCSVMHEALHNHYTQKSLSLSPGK
T2 sequence (P01854 116-546 I515L limits assumed): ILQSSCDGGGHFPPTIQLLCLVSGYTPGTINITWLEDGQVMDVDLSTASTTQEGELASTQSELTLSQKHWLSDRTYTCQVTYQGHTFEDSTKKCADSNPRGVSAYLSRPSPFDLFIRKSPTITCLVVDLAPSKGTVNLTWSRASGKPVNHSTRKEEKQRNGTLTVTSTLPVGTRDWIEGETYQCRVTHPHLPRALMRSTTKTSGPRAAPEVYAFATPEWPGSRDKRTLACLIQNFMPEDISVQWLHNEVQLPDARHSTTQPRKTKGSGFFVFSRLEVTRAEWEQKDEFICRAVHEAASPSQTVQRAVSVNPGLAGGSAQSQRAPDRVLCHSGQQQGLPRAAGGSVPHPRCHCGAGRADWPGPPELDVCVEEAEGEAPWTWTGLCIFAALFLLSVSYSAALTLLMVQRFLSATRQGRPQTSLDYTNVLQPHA

B1: humanized anti-IgE/M1′ antibody 47H4.v1 (antibody, V domains shown)
VH: EVQLVESGGGLVQPGGSLRLSCAASGFTFSDYGMAWVRQAPGKGLEWVAFISDLAYTIYYADTVTGRFTISRDNSKNTLYLQMNSLRAEDTAVYYCARDNWDAMDYWGQGTLVTVSS
VL: DIQMTQSPSSLSASVGDRVTITCRSSQSLVHNNGNTYLHWYQQKPGKAPKLLIYKVSNRFSGVPSRFSGSGSGTDFTLTISSLQPEDFATYYCSQNTLVPWTFGQGTKVEIKR
notes: direct CDR graft, produced as IgG
Turning to B1, the Kd worked out at 7.8 nM in assay [1], 0.37 nM in assay [2] and 3.1 nM in assay [3]. Moreover, the IC50 was found to be 12 nM in assay [4] and 18 nM in assay [5].

B2: humanized anti-IgE/M1′ antibody 47H4.v4 (antibody, V domains shown)
VH: B1 VH with M34I, M104L
VL: B1 VL with G34A
notes: produced as IgG
For B2, binding in assay [1] was put at a Kd of 56 nM. This counts as double-digit nanomolar.

B3: humanized anti-IgE/M1′ antibody 47H4.v3 (antibody, V domains shown)
VH: B1 VH with M34I, M104L
VL: B1 VL
notes: produced as IgG
In the case of B3, binding in assay [1] was characterised by a dissociation constant (Kd) of 69 nM. Also, the IC50 in assay [4] was ~7600 nM.

B4: humanized anti-IgE/M1′ antibody 47H4.v2 (antibody, V domains shown)
VH: B1 VH
VL: B1 VL with G34A
notes: produced as IgG
With B4, the figures for the Kd in assay [1], in assay [2] and in assay [3] were 7.4 nM, 0.54 nM and 2.8 nM, respectively. The same molecule had an IC50 in assay [4] of 38 nM.

B5: humanized anti-IgE/M1′ antibody 26A11.v1 (antibody, V domains shown)
VH: EVQLVESGGGLVQPGGSLRLSCAASGYTFTDYYMMWVRQAPGKGLEWVGDINPNNYDTSYNQKFKGRFTISADTSKNTAYLQMNSLRAEDTAVYYCASKAYWGQGTLVTVSS
VL: DIQMTQSPSSLSASVGDRVTITCRSSQDISNSLNWYQQKPGKAPKLLIYSTSRLHSGVPSRFSGSGSGTDFTLTISSLQPEDFATYYCQQGHTLPWTFGQGTKVEIKR
notes: direct CDR graft, produced as IgG in 293 cells
In the case of B5, the Kd in assay [6] worked out at 1.7 nM; in assay [1] it was 0.2 nM; in assay [2] it was 1.06 nM; in assay [3], 9 nM. Besides, the results for the IC50 in assay [4] and in assay [5] were 15 nM and 19 nM, respectively.

B6: humanized anti-IgE/M1′ antibody 26A11.v4 (antibody, V domains shown)
VH: B5 VH with M34I
VL: B5 VL
notes: produced as IgG
For the molecule B6, binding in assay [1] was put at a Kd of 0.9 nM. Moreover, the figures for the IC50 in assay [4] and in assay [5] were 20 nM and 29 nM, respectively.

B7: humanized anti-IgE/M1′ antibody 26A11.v3 (antibody, V domains shown)
VH: B5 VH
VL: B5 VL with S32Y
notes: produced as IgG
Take B7: the Kd was 2.8 nM in assay [6] and < 0.05 nM in assay [1]. The IC50 was 10 nM in assay [4] and 22 nM in assay [5].

B8: humanized anti-IgE/M1′ antibody 26A11.v14 (antibody, V domains shown)
VH: B5 VH
VL: B5 VL with N31Q
notes: produced as IgG
Consider B8, for which the Kd was determined as 3.9 nM in assay [6] and 1.5 nM in assay [2]. In assay [5], this molecule registered an IC50 of 19 nM.

B9: humanized anti-IgE/M1′ antibody 26A11.v15 (antibody, V domains shown)
VH: B5 VH with M34I
VL: B5 VL with N31S
notes: produced as IgG
As for B9, binding in assay [6] was put at a Kd of 8.4 nM. In assay [5], this molecule came in with an IC50 of 32 nM.

B10: humanized anti-IgE/M1′ antibody 26A11.v2 (antibody, V domains shown)
VH: B5 VH
VL: B5 VL with S32A
notes: produced as IgG
In assay [1], B10 displayed a Kd of 0.3 nM. This molecule had a 50% inhibitory concentration (IC50) in assay [4] of 18 nM.

B11: humanized anti-IgE/M1′ antibody 26A11.v16 (antibody, V domains shown)
VH: B5 VH with M34I
VL: B5 VL with N31Q
notes: produced as IgG
Molecule B11 had a Kd in assay [6] of 8.8 nM. Moreover, the IC50 in assay [5] came to 27 nM.

B12: humanized anti-IgE/M1′ antibody 26A11.v13 (antibody, V domains shown)
VH: B5 VH
VL: B5 VL with N31S
notes: produced as IgG
B12 displayed a Kd in assay [6] of 4 nM. The same molecule came in with an IC50 in assay [5] of 19 nM.

B13: humanized anti-IgE/M1′ antibody 26A11.v5 (antibody, V domains shown)
VH: B5 VH with M34I
VL: B5 VL with S32A
notes: produced as IgG
Regarding B13, the IC50 in assay [4] stood at 25 nM; in assay [5] it was 35 nM.

B14: murine anti-IgE/M1′ antibody 1C11 (antibody, V domains shown)
VH: QVQLQQSGAELVRPGASVTLSCKASGYTFTDFEMHWVKQTPVHGLEWIGAIAPETGTSAYNQKFRGKATLTADISSSTAYMDLRSLTSEDSAVYYCTIYYAAPWFAYWGQGTLVTVSS
VL: DIVMSQSPSSLAVSVGEKVTMSCKSSQSLLYSSNQKNYLAWYQQKPGQSPKLLIYWASTRESGVPDRFTGSGSVTDFPLTISSVKAEDLAVYYCQQYYSYPYTFGGGTKVEIKR
notes: murine hybridoma antibody; also called 1C11.10.20
As to B14, in assay [7], binding was put at a Kd of 2.7 nM.

B15: murine anti-IgE/M1′ antibody 45C1 (antibody, V domains shown)
VH: QIQLVQSGPELKKPGETVKISCKASGYTFTNYGMNWVKQAPGKGLKWMGWINTYTGEPTYVDDFKGRFAFSLETSASTAYLQINNLKNEDMATYFCARGIYYDNDDIYWGQGTILTVSS
VL: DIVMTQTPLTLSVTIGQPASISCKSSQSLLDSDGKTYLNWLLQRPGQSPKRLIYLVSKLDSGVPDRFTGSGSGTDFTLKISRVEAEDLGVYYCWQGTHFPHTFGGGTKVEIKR
notes: murine hybridoma antibody; also called 45C1.6.14
Take B15: the Kd in assay [7] stood at 16.8 nM.
